{
  "source": "patent US20240377408A1",
  "binders": {"B1": {"name": "S279_0004 (designed binder, not shown: small tags and cut ends; large carriers)", "chain": "EWGYASHNGPDHWHELFPNAKGENQSPIELHTKDIRHDPSLQPWSVSYDGGSAKTILNNGKTLGVVFDDTYDRSMLRGGPLPGPYRLREFHLHWGSSDDHGSEHTVDGVKYAAELHLLHWNPKYNTFKEALKQRDGLAVIGIFLKIGHENGEFQIFLDALDKIKTKGKEAPFTKFDPSSLFPASRDYWTYQGSMTIPPLMEAVVWLLLKEPMTVSSDQMAKLRSLLSSAENEPPVPLVSNWRPPQPINNRVVRASFK"}, "B2": {"name": "Synthetic binder, S279_0004 (designed binder)", "chain": "B1 chain"}},
  "key": {"[1]": {"molecular_target": "biotinylated peptide M64-P1-P2-ΔK-(PEG9)(PEG9)-K(Biotin) with P1 = V", "assay": "BLI, biotinylated peptide on streptavidin tips, binder in solution"}, "[2]": {"molecular_target": "biotinylated peptide M64-P1-P2-ΔK-(PEG9)(PEG9)-K(Biotin) with P1 = T", "assay": "BLI, biotinylated peptide on streptavidin tips, binder in solution"}},
  "data": [
    {"binder": "B1", "values": [
      {"measurement": "Kd", "setting": "[1]", "value": "< 350", "unit": "nM"}
    ]},
    {"binder": "B2", "values": [
      {"measurement": "Kd", "setting": "[2]", "value": 488, "unit": "nM"},
      {"measurement": "koff", "setting": "[2]", "value": 0.0111, "unit": "s⁻¹"},
      {"measurement": "kon", "setting": "[2]", "value": 23300, "unit": "M⁻¹ s⁻¹"},
      {"measurement": "Kd", "setting": "[1]", "value": 20, "unit": "nM"},
      {"measurement": "koff", "setting": "[1]", "value": 0.000473, "unit": "s⁻¹"},
      {"measurement": "kon", "setting": "[1]", "value": 23700, "unit": "M⁻¹ s⁻¹"}
    ]}
  ]
}
